# Assay results from the supplement of paper PMC7125110.
# ± gives the standard error. Fewer inactive variants are shown than the library holds.
# B1: glmS ribozyme (parent)
# chain: AUAAAAGCGCCAGAACUACAGAAAUGUAGUUGACGAGGAGGAGGUUUAUCGAAUUUUCGGCGGAUGCCUCCAAA
# Legend:
# Conditions in all cases: with glucosamine-6-phosphate
# [1] = variants of: B1; assay: self-cleavage kobs at 40 uM GlcN6P; higher = faster cleavage; RNA array
# Outline: (§1)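 E. coli RNA polymerase transcribed barcoded ribozyme variants in situ on sequenced MiSeq chips, which were tracked via a hybridised Cy3 probe at 37 °C. Tiles were imaged over ~14 h after glucosamine-6-phosphate (40 μM to 10 mM) in HEPES/KCl/Mg(OAc)2 buffer was flowed in. Normalised per-tile medians were fit to one- or two-exponential decays for kobs, and kcat and KM came from weighted Michaelis–Menten fits.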
# [2] = variants of: B1; assay: self-cleavage kobs at 10000 uM GlcN6P; higher = faster cleavage; RNA array
# Outline: as §1
# [3] = variants of: B1; assay: self-cleavage kobs at 640 uM GlcN6P; higher = faster cleavage; RNA array
# Outline: as §1
# [4] = variants of: B1; assay: self-cleavage kobs at 2500 uM GlcN6P; higher = faster cleavage; RNA array
# Outline: as §1
# [5] = variants of: B1; assay: self-cleavage kobs at 160 uM GlcN6P; higher = faster cleavage; RNA array
# Outline: as §1
Variant,self-cleavage kobs at 40 uM GlcN6P [1],self-cleavage kobs at 10000 uM GlcN6P [2],self-cleavage kobs at 640 uM GlcN6P [3],self-cleavage kobs at 2500 uM GlcN6P [4],self-cleavage kobs at 160 uM GlcN6P [5]
A52U C61A,< 1e-05 s⁻¹,< 1e-05 s⁻¹,,,
U47G A52G U69C,6.7e-05 ± 2.4e-05 s⁻¹,9.36e-05 ± 1.5e-05 s⁻¹,,,
G7C G13C G63U C70G,< 1e-05 s⁻¹,< 1e-05 s⁻¹,< 1e-05 s⁻¹,< 1e-05 s⁻¹,
G41C G51A A52U C67A,< 1e-05 s⁻¹,< 1e-05 s⁻¹,,,
C58U U65A,< 1e-05 s⁻¹,,,,< 1e-05 s⁻¹
C16A C34G,< 1e-05 s⁻¹,,< 1e-05 s⁻¹,,
C34A C61U C67U,< 1e-05 s⁻¹,< 1e-05 s⁻¹,,,
A36U C67U C70G,7.02e-05 ± 2.8e-05 s⁻¹,3.53e-05 ± 1.7e-05 s⁻¹,,,
A14G A15U C67G,5.43e-05 ± 1.3e-05 s⁻¹,0.0027 ± 0.00046 s⁻¹,,,
G29A G35C A39G G41U G43C G62A A64U,< 1e-05 s⁻¹,< 1e-05 s⁻¹,< 1e-05 s⁻¹,< 1e-05 s⁻¹,
C10U C34G C58U,< 1e-05 s⁻¹,,,,
U46G G51U U57A C70G,4.37e-05 ± 1.9e-05 s⁻¹,,,,
G7U C10G C68G,0.000171 ± 5.8e-05 s⁻¹,5.21e-05 ± 1.6e-05 s⁻¹,,,
C8G G13U U30C G43U,< 1e-05 s⁻¹,,,,
A42U G44A U65G,< 1e-05 s⁻¹,< 1e-05 s⁻¹,< 1e-05 s⁻¹,< 1e-05 s⁻¹,< 1e-05 s⁻¹
C61U A64C,< 1e-05 s⁻¹,< 1e-05 s⁻¹,,< 1e-05 s⁻¹,
C10U C11U A64G U65A,< 1e-05 s⁻¹,,,,
C10U G62U,< 1e-05 s⁻¹,< 1e-05 s⁻¹,< 1e-05 s⁻¹,< 1e-05 s⁻¹,< 1e-05 s⁻¹
G37C A64C C68U,< 1e-05 s⁻¹,< 1e-05 s⁻¹,,< 1e-05 s⁻¹,
G38A G51U A52U,< 1e-05 s⁻¹,< 1e-05 s⁻¹,,,
A12U U45C,0.000226 ± 3.6e-05 s⁻¹,0.00628 ± 0.001 s⁻¹,,0.00428 ± 0.0016 s⁻¹,
C11G A36G G40C,< 1e-05 s⁻¹,< 1e-05 s⁻¹,< 1e-05 s⁻¹,< 1e-05 s⁻¹,< 1e-05 s⁻¹
G35C C50U C70G,< 1e-05 s⁻¹,,,,
G43A C70G,< 1e-05 s⁻¹,< 1e-05 s⁻¹,< 1e-05 s⁻¹,< 1e-05 s⁻¹,< 1e-05 s⁻¹
G32A G37A C50G C67U,6.41e-05 ± 2.1e-05 s⁻¹,,,,
G37U G41A C68U,< 1e-05 s⁻¹,,,,
